# T1: HBsAg (hepatitis B surface antigen; genotype or subtype not stated in the example) (hepatitis B virus)
# T1 chain: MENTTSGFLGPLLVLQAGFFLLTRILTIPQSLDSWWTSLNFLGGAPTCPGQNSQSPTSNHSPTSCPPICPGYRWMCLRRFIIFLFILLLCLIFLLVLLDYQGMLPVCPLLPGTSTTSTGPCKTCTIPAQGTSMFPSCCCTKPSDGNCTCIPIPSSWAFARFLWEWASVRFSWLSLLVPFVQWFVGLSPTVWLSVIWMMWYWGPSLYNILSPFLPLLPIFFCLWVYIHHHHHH
# B1: HBC34-v36 (IgG1 with wild-type Fc, allotype G1m17, 1) (antibody, V domains shown)
# VH: ELQLVESGGGWVQPGGSQRLSCAASGRIFRSFYMSWVRQAPGKGLEWVATINQDGSEKLYVDSVKGRFTISRDNAKNSLFLQMNNLRVEDTAVYYCAAWSGNSGGMDVWGQGTTVSVSS
# VL: SYELTQPPSVSVSPGQTVSIPCSGDKLGNKNVAWFQHKPGQSPVLVIYQDSKRPSGIPERFSGSNSGNTATLTISGTQAMDEAAYFCQTFDSTTVVFGGGTRLTVLG
# notes: also called L-CDR2 GL
# Target: T1, HBsAg (hepatitis B surface antigen; …)
# Experiment: ELISA on HBsAg; IgG1 with wild-type Fc
binder,measurement,value
B1,EC50,0.7 ng/mL
